Experimental data: article PMC8199036, “Improved Tumor-Targeting with Peptidomimetic Analogs of Minigastrin ^177Lu-PP-F11N” (Cancers, 2021)
Read-outs that look alike come from different tables or passages of the source. Starred links: 1 amine or outer side, 2 acyl side, 3 side chain; linkers in the order of their positions; H or OH if unused. Non-standard residues stand in square brackets, D forms with d. Residues, ends and D or L forms follow the SMILES beside them. *: point of attachment. DOTA = O=C(O)CN1CCN(CC(=O)O)CCN(CC(=O)*)CCN(CC(=O)O)CC1; X1 = C[C@@H](C(=O)[*:2])n1cc([C@@H](CCC(=O)O)N[*:1])nn1; X2 = O=C(Cn1cc([C@H](Cc2ccc(O)cc2)N[*:1])nn1)[*:2]; Nle = CCCC[C@H](N)C(=O)O

Assay: biodistribution in mice with CCK2R-positive xenografts
Type: in vivo, female CD1-nu mice
Conditions: female, CD1-nu, mouse, total radioactivity; for tissue uptake at 1 h / tissue uptake at 4 h / tissue uptake at 24 h: in vivo
[1] = 10 pmol, Stomach (CCK2R-positive) uptake
[2] = 10 pmol, Tumor (CCK2R-positive) uptake
[3] = tumor / blood, 10 pmol, read-out: Tumor-to-Blood ratio
[4] = tumor / kidneys, 10 pmol, read-out: Tumor-to-Kidneys ratio
[5] = tumor / muscle, 10 pmol, read-out: Tumor-to-Muscle ratio
[6] = tumor / stomach, 10 pmol, read-out: Tumor-to-Stomach ratio

What does the source list for `CCCC[C@H](NC(=O)[C@H](Cc1c[nH]c2ccccc12)NC(=O)Cn1cc([C@H](Cc2ccc(O)cc2)NC(=O)[C@H](C)n2cc([C@@H](CCC(=O)O)NC(=O)[C@@H](CCC(=O)O)NC(=O)[C@@H](CCC(=O)O)NC(=O)[C@@H](CCC(=O)O)NC(=O)[C@@H](CCC(=O)O)NC(=O)[C@@H](CCC(=O)O)NC(=O)CN3CCN(CC(=O)O)CCN(CC(=O)O)CCN(CC(=O)O)CC3)nn2)nn1)C(=O)N[C@@H](CC(=O)O)C(=O)N[C@@H](Cc1ccccc1)C(N)=O` [NMG 3, DOTA-(DGlu)6 -Ψ[Tz]-Ala-Tyr-Ψ[Tz]-Gly-Trp-Nle-Asp-Phe-NH2] ({DOTA}-[dE][dE][dE][dE][dE][X1][X2]W[Nle]DF-NH2)?
tissue uptake at 1 h (10 pmol, Blood uptake): 0.51 %ID/g; tissue uptake at 4 h (10 pmol, Blood uptake): 0.02 %ID/g; tissue uptake at 24 h (10 pmol, Blood uptake): < 0.01 %ID/g; tissue uptake at 1 h (10 pmol, Bone uptake): 0.45 %ID/g; tissue uptake at 24 h (10 pmol, Bone uptake): 0.07 %ID/g; tissue uptake at 1 h (10 pmol, Heart uptake): 0.19 %ID/g; tissue uptake at 4 h (10 pmol, Heart uptake): 0.03 %ID/g; tissue uptake at 24 h (10 pmol, Heart uptake): 0.01 %ID/g; tissue uptake at 1 h (10 pmol, Intestines uptake): 0.25 %ID/g; tissue uptake at 4 h (10 pmol, Intestines uptake): 0.1 %ID/g; tissue uptake at 24 h (10 pmol, Intestines uptake): 0.02 %ID/g; tissue uptake at 1 h (10 pmol, Kidneys uptake): 2.01 %ID/g; tissue uptake at 4 h (10 pmol, Kidneys uptake): 1.74 %ID/g; tissue uptake at 24 h (10 pmol, Kidneys uptake): 1.09 %ID/g; tissue uptake at 1 h (10 pmol, Liver uptake): 0.16 %ID/g; tissue uptake at 4 h (10 pmol, Liver uptake): 0.07 %ID/g; tissue uptake at 24 h (10 pmol, Liver uptake): 0.04 %ID/g; tissue uptake at 1 h (10 pmol, Lung uptake): 0.33 %ID/g; tissue uptake at 4 h (10 pmol, Lung uptake): 0.07 %ID/g; tissue uptake at 24 h (10 pmol, Lung uptake): 0.03 %ID/g; tissue uptake at 1 h (10 pmol, Muscle uptake): 0.13 %ID/g; tissue uptake at 24 h (10 pmol, Muscle uptake): 0.01 %ID/g; tissue uptake at 1 h (10 pmol, Pancreas uptake): 0.49 %ID/g; tissue uptake at 4 h (10 pmol, Pancreas uptake): 0.24 %ID/g; tissue uptake at 24 h (10 pmol, Pancreas uptake): 0.17 %ID/g; tissue uptake at 1 h (10 pmol, Spleen uptake): 0.13 %ID/g; tissue uptake at 4 h (10 pmol, Spleen uptake): 0.05 %ID/g; tissue uptake at 1 h [1]: 3.76 %ID/g; tissue uptake at 4 h [1]: 3.11 %ID/g; tissue uptake at 24 h [1]: 1.51 %ID/g; tissue uptake at 1 h [2]: 9.43 %ID/g; tissue uptake at 4 h [2]: 6.9 %ID/g; tissue uptake at 24 h [2]: 5.24 %ID/g; tissue uptake at 4 h (Blood uptake): 0.03 %ID/g; tissue uptake at 4 h (Heart uptake): 0.05 %ID/g; tissue uptake at 4 h (Intestines uptake): 0.07 %ID/g; tissue uptake at 4 h (Kidneys uptake): 1.88 %ID/g; tissue uptake at 4 h (Liver uptake): 0.09 %ID/g; tissue uptake at 4 h (Lung uptake): 0.09 %ID/g; tissue uptake at 4 h (Pancreas uptake): 0.19 %ID/g; tissue uptake at 4 h (Spleen uptake): 0.06 %ID/g; tissue uptake at 4 h (Stomach (CCK2R-positive) uptake): 0.65 %ID/g; tissue uptake at 4 h (Tumor (CCK2R-positive) uptake): 3.43 %ID/g; tissue to tissue ratio at 1 h [3]: 19.5 ± 7.58; tissue to tissue ratio at 4 h [3]: 345 ± 34.6; tissue to tissue ratio at 24 h [3]: 4370 ± 541; tissue to tissue ratio at 1 h [4]: 4.7 ± 1.2; tissue to tissue ratio at 4 h [4]: 3.99 ± 0.43; tissue to tissue ratio at 24 h [4]: 3.65 ± 0.99; tissue to tissue ratio at 1 h [5]: 79 ± 15.7; tissue to tissue ratio at 4 h [5]: 505 ± 158; tissue to tissue ratio at 24 h [5]: 437 ± 54.1; tissue to tissue ratio at 1 h [6]: 2.66 ± 1.08; tissue to tissue ratio at 4 h [6]: 2.22 ± 0.2; tissue to tissue ratio at 24 h [6]: 3.06 ± 1.44
